Data on five molecules can be found in patent US10654927B2, “Signalling system” (UCL BUSINESS PLC, priority 2014, dated 2020).

For one test, the target named is streptavidin (Streptomyces avidinii, UniProt P22629). As to conditions: biotin mimicking peptide binding streptavidin; read-out: affinity; cited from earlier work.
Test [1] deals with SupT1 cells engineered to express CD33. Kind of test: Activation of BW5 T-cells expressing TetCAR challenged with SupT1 cells engineered to express CD33. Format: cell-based. As to conditions: increasing concentrations of tetracycline. An excerpt: FIG. 7—Function of the initial TetR construct in comparison with control. (a) TetCAR was expressed in BW5 T-cells. These T-cells were challenged with wild-type SupT1 cells or SupT1 cells engineered to express CD33 in the absence of tetracycline or in the presence of increasing concentrations of tetracycline. […] (b) Control TetCAR which lacks the TiP domain was transduced into BW5. Once again, these T-cells were challenged with wild-type SupT1 cells or SupT1 cells engineered to express CD33 in the absence or in the presence of increasing concentration of Tetracycline.
Signalling through the signalling component may be determined by a variety of methods known in the art. […] Functional readouts, such as clonal expansion of T cells, upregulation of activation markers on the cell surface, differentiation into effector cells and induction of cytotoxicity or cytokine secretion may also be utilised. As an illustration, in the present examples the inventors determined levels of interleukin-2 (IL-2) produced by T-cells expressing a receptor component and signalling component of the CAR system according to the present invention upon binding of antigen to the receptor component in the presence of varying concentrations of an agent. […]

Sequence of streptavidin (P22629 37-163): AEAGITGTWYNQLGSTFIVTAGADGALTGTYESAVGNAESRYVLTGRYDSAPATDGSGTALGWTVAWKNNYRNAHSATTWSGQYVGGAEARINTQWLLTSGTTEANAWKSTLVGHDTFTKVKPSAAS

As for “Biotin mimicking peptide CHPQGPPC (SEQ ID NO: 9) (Biotin mimicking peptide, ccstreptag)”, the Kd in the test with streptavidin was 0.23 µM.

In the case of “Biotin mimicking peptide WSHPQFEK (SEQ ID NO: 7) [streptag II]”, the Kd with streptavidin is 72 µM.

Consider `CN(C)[C@@H]1C(O)=C(C(N)=O)C(=O)[C@@]2(O)C(O)=C3C(=O)c4c(O)cccc4[C@@](C)(O)[C@H]3C[C@@H]12` [tetracycline], for which the “concentration of tetracycline at which activation is fully inhibited” value in test [1] amounted to 100 nM.

With “Biotin mimicking peptide DVEAWLGAR (SEQ ID NO: 5) (Biotin mimicking peptide, short nanotag)”, in the test with streptavidin, the Kd is 0.017 µM.

Consider “Biotin mimicking peptide DVEAWLDERVPLVET (SEQ ID NO: 4) (Biotin mimicking peptide, long nanotag)”, for which, in the test with streptavidin, the Kd is 0.0036 µM.
